Results: US20110312897A1 (ROCKEFELLER UNIVERSITY, published 2011)
Where no end group is shown, it is not given here.

Biological target: T1, cleaved H3 tail peptide (H3 22-37), methylated at K27 (not fully specified; also: K27 methylated, degree not given here, biotinylated, site not given here)
T1 construct: Mimics the H3 tail after cleavage between A21 and T22; also called cleaved peptide (amino acid residues 22-37)
T1 peptide: TKAARK(Me)SAPATGGVKK
Test: fluorescence anisotropy

B1: chromodomain of mouse CBX7 (other, UniProt Q8VDS3 1-70, looked up)
chain: MELSAIGEQVFAVESIRKKRVRKGKVEYLVKWKGWPPKYSTWEPEEHILDPRLVMAYEEKEERDRASGYR
notes: domain: chromodomain; also called Cbx7-CD protein; chromodomain of Pc (mouse CBX7)
fold decrease of binding against the non-cleaved peptide (residues 18-37): 3 fold
